The results in this text go back to article doi:10.1101/648071 (bioRxiv, 2019).

Values joined by “and” are separate entries in the source; they are usually repeats but may differ in a detail not shown here. Equal entries are not always repeated. Where two headings read alike, the source gives them in different places.

Data set [1] has as its target OrgB, C-terminal His-tag (co-expressed with spaO) (Salmonella Typhimurium strain SL1344). Description: native MS.
For data set [2], the target named is OrgB (co-expressed with Strep-tagged InvC or InvC fragments) (Salmonella Typhimurium strain SL1344). Description: native MS.
The target of data set [3] is InvC, full-length, C-terminal Strep-tag (Salmonella Typhimurium strain SL1344) (UniProt P0A1B9). Kind of data set: native MS.
Sequence of InvC, full-length, C-terminal Strep-tag (Salmonella Typhimurium strain SL1344) (P0A1B9 whole entry): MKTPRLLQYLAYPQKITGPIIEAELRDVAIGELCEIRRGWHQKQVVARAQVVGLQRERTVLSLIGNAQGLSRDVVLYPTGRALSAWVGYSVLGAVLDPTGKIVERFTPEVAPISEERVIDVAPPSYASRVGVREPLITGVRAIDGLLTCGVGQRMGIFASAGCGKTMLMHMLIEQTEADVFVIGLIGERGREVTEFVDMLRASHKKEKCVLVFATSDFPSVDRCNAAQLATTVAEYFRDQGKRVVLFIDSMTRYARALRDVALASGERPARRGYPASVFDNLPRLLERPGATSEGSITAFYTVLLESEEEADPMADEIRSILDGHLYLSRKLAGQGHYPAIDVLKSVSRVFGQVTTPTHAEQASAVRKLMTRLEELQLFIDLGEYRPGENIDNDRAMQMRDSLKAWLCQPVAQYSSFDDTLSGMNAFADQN
The target in data set [4] is SpaO-2SpaOC heterotrimer (Salmonella Typhimurium strain SL1344) (UniProt P40699). Description: native MS.
Data set [5] shares this target. Description: native MS. This is another data set of the same source.
The target of data set [6] is T1, SpaO, full-length, C-terminal Strep-tag (Salmonella Typhimurium strain SL1344, UniProt P40699 1-303).
T1 sequence (looked up): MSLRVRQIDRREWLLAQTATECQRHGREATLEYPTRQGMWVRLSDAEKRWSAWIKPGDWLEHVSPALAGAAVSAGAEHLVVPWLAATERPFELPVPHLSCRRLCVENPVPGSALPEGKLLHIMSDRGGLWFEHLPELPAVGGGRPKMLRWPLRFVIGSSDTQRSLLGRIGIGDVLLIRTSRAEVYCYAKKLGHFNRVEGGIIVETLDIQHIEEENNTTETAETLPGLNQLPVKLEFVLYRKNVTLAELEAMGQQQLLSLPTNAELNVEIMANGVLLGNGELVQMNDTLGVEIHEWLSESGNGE
Kind of data set: native MS.

In data set [7] the target is T2, SpaO N-terminal domain (SpaO 1-145) (Salmonella Typhimurium strain SL1344, UniProt P40699 1-145).
T2 sequence (looked up): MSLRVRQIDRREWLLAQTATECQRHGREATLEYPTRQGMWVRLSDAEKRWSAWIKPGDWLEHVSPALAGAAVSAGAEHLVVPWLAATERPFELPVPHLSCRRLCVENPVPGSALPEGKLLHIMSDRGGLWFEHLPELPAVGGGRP
Kind of data set: ITC.

Data set [8] concerns the target T2, SpaO N-terminal domain (SpaO 1-145). Kind of data set: SEC-MALS. (Size exclusion chromatography separates by hydrodynamic size, large species first.)
For data set [9] the target is unchanged. Description: native MS.
The target of data set [10] is T3, SpaO SPOA1-SPOA2 construct (SpaO 140-297) (Salmonella Typhimurium strain SL1344, UniProt P40699 140-297).
T3 sequence (looked up): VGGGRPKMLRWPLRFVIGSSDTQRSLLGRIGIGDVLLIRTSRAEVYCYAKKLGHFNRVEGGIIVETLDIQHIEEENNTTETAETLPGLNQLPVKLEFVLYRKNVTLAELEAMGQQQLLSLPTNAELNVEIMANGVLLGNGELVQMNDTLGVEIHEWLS
Kind of data set: native MS.

Data set [11] deals with the molecule itself. Kind of data set: native MS.
For data set [12], the target named is T4, SpaO in the SpaO/SpaOC/OrgB/InvC complex (spaO+orgB+invC co-expression) (Salmonella Typhimurium strain SL1344, UniProt P40699 1-303).
T4 sequence (looked up): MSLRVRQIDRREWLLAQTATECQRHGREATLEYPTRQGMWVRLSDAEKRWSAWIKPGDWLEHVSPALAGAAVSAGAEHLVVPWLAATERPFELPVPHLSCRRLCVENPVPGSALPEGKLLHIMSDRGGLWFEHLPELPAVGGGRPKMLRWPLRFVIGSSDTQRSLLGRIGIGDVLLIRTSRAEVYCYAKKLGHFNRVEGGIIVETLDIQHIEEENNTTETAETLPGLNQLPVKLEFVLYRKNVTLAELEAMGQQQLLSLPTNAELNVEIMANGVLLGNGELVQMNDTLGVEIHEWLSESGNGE
Kind of data set: native MS.

What is called stoichiometry N is the number of molecules, sites or subunits per partner or assembly. In the case of “OrgB, C-terminal His-tag (co-expressed with spaO) (natural protein)”, the stoichiometry N in data set [1] was 2.
The molecule “OrgB (co-expressed with Strep-tagged InvC or InvC fragments) (natural protein)” had a stoichiometry N in data set [2] of 2. The molecule further showed a stoichiometry N (OrgB per InvC) in data set [3] of 2.
Regarding “SpaO-2SpaOC heterotrimer (from UniProt P40699 1-303; P40699 203-303) (complex)”, the stoichiometry N in data set [4] and in [5] was 2 in each case.

B1: SpaOC, short product of the spaO gene, C-terminal Strep-tag (natural protein, Salmonella Typhimurium strain SL1344, UniProt P40699 203-303, looked up)
chain: METLDIQHIEEENNTTETAETLPGLNQLPVKLEFVLYRKNVTLAELEAMGQQQLLSLPTNAELNVEIMANGVLLGNGELVQMNDTLGVEIHEWLSESGNGE
In general, Kd refers to the free concentration of one partner at which half of the binding sites on the other are occupied at equilibrium, for simple one-to-one binding. High values mean a looser complex, low ones a tighter complex. Consider B1, for which the “stoichiometry N” value in data set [6] is 2 SpaOC per SpaO; in data set [8], 2 SpaOC per SpaO(1-145); in data set [9], 4 SpaOC per SpaO(1-145); in data set [10], 2 SpaOC per SpaO(140-297); in data set [11], 2 and 4. Besides, the Kd in data set [7] turned out to be 1040 ± 210 nM.

B2: SpaOC in the SpaO/SpaOC/OrgB/InvC complex (spaO+orgB+invC co-expression) (natural protein, Salmonella Typhimurium strain SL1344, UniProt P40699 203-303, looked up)
chain: METLDIQHIEEENNTTETAETLPGLNQLPVKLEFVLYRKNVTLAELEAMGQQQLLSLPTNAELNVEIMANGVLLGNGELVQMNDTLGVEIHEWLSESGNGE
Turning to B2, the “stoichiometry N” value in data set [12] was 2 SpaOC per SpaO.
